Test results: the nanobody polyreactivity screen of Harvey et al. (2022)

assay: yeast display, Sf9 membrane polyspecificity reagent, FACS + sequencing; frameworks hold sequencing errors
Procedure, shortened: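 A nanobody's polyreactivity label depends on the gate it was sorted from. Yeast display cells were stained with 10% biotinylated, detergent-solubilized Sf9 membrane reagent for 1 hour at 4 °C, enriched on streptavidin microbeads and sorted by FACS. The low and high (top ~1%) gates were set on anti-HA fluorescence for expression and streptavidin fluorescence for reagent binding.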

Which “polyreactivity (PSR sort gate)” value does the source give for “QVQLVESGGGLVQAGGSLRLSCAASGFIFGTYAMGWYRQAPGKERELVAAISRSGGSTSYADSVKGRFTISRDNAKNTVYLQMNSLKPEDTAVYYCNKRLLRFPYWGYDYWGQGTQVTVSS” here?
The value was “high polyreactivity”.

With “QVQLVESGGGLVQAGGSLRLSCAASGFIFGTYAMGWYRQAPGKERELVAAISRVGNTSYADSVKGRFTISRDNAKNTVYLQMNSLKPEDTAVYYCAADAPSWYDRQYDYWGQGTQVTVSS” as the sequence, how does the “polyreactivity (PSR sort gate)” value read?
Its value is “low polyreactivity”.

For “QVQLVESGGGLVQAGGSLRLSCAASGFIFGVNAMGWYRQAPGKERDLVAAITRNGGSTYYADSVKGRFTISRDNAKNTVYLQMNSLKPEDTAVYYCAKYVRRAPSTFDVDYWGQGTQVTVSS”, which “polyreactivity (PSR sort gate)” value is on record?
The value was “high polyreactivity”.

For “QVQLVESGGGLVQAGGSLRLSCAASGFIFGWYGMGWDRQARGKERELVAAITWSGVRTYYADSVKGRFTISRDNAKNTVYLQMNSLKPEDTAVYYCARAGGYVGRGYKDQDGRGDYWGQGTQVTVSS”, which “polyreactivity (PSR sort gate)” value is on record?
Its value is “high polyreactivity”.

With “QVQLVESGGGLVQAGGSLRLSCAASGFIFGYNALGWYRQAPAKERELVAAITWIGGTTYYADSVKGRFTISRDNAKNTVYLQLNSLKPEDTAVYYCARQRSFGRSSYSHRYDYWGQGNQVTVSS” as the sequence, how does the “polyreactivity (PSR sort gate)” value read?
Its value is “high polyreactivity”.

For “QVQLVESGGGLVQAGGSLRLSCAASGFIFGYNAMDWYRQAPGKERELVAAITSGGSTNYADSVKGRFTISRDNAKNTVYLQMNSLKPEDTAVYYCNTVPGDFRSITDDDWGQGTQVTVSS”, which “polyreactivity (PSR sort gate)” value is on record?
The value was “low polyreactivity”.

Which “polyreactivity (PSR sort gate)” value does the source give for “QVQLVESGGGLVQAGGSLRLSCAASGFIFGYNAMGWSRQAPGKERELVAAITWSGGSTYYADSVKGRFTISRDIAKNTVYLQMNSLKPEDTAVYYCNWPGEGDYWGQGTQVTVSS” here?
Its value is “low polyreactivity”.

For “QVQLVESGGGLVQAGGSLRLSCAASGFIFGYNAMGWYRKAPGTERELVAAITWIGGTTYYADSVKGRFTISRDNAKNTVYLQMNSLKPEDTAVYYCARQRSYGRSSYSYGYDYWGQGTQVTVSS”, which “polyreactivity (PSR sort gate)” value is on record?
Its value is “high polyreactivity”.

With “QVQLVESGGGLVQAGGSLRLSCAASGFIFGYNAMGWYRQAPGKERELVAAINWSGGRTYYADSVKGRFTISRDNPKNTVYLQMNSLKPEDTAVSYCNADGSRRYNYWGQGTQVTVSS” as the sequence, how does the “polyreactivity (PSR sort gate)” value read?
Its value is “low polyreactivity”.

With “QVQLVESGGGLVQAGGSLRLSCAASGFIFGYNAMGWYRQAPGKERELVAAIRAGDGSTYYADSVKGRFTISRDNAKNTVYLQMNSLKPEDTAVYYCAAAWRQSGYRYGYWGQGTQVTVAS” as the sequence, how does the “polyreactivity (PSR sort gate)” value read?
The value was “high polyreactivity”.

Which “polyreactivity (PSR sort gate)” value does the source give for “QVQLVESGGGLVQAGGSLRLSCAASGFIFGYNAMGWYRQAPGKERELVAAITASGGSTYYADSVKGRFTISRDNAKNTVYLQMNSLKPEDTAVYYCATVLRKNGERVNRLYYWGQGTQVTVSS” here?
The value was “high polyreactivity”.

Which “polyreactivity (PSR sort gate)” value does the source give for “QVQLVESGGGLVQAGGSLRLSCAASGFIFGYNAMGWYRQAPGKERELVAAITRGGITYYADSVKGRFTISRDNAKYTVYLQMNSLKPEDTAVYYCASDWSVVYTDYDSWGHGTQVTVSS” here?
Its value is “low polyreactivity”.

Which “polyreactivity (PSR sort gate)” value does the source give for “QVQLVESGGGLVQAGGSLRLSCAASGFIFGYNAMGWYRQAPGKERELVAAITWSGGSTYYADSVKGRFTISRDNAKNTVYLQMNSLKPEDTAVDYCNWPGEGDYWGQGTQVTVSS” here?
Its value is “low polyreactivity”.

Which “polyreactivity (PSR sort gate)” value does the source give for “QVQLVESGGGLVQAGGSLRLSCAASGFIFGYNAMVWYRQAPGKERELVARINSGGNTNYADSVKGRFTISRDNAKNTVYLQMNSLKPDDTAVYYCARDASNRYDYWGQGTLVTVSS” here?
The value was “low polyreactivity”.

Which “polyreactivity (PSR sort gate)” value does the source give for “QVQLVESGGGLVQAGGSLRLSCAASGFIFGYYAMGWYRQAPGKERELVAAITSGGSTYYADSVKGRFTISRDNAKNTVYLQMNSLKPEDTAVYYCAAGWWYYLHMDYWGQGTQVTVSS” here?
Its value is “high polyreactivity”.

Which “polyreactivity (PSR sort gate)” value does the source give for “QVQLVESGGGLVQAGGSLRLSCAASGFIFGYYAMGWYRQAPGKERELVAAMSRGGITYYADSVNGRFTISRDNAKNTVYLQMNSLKPEDTAVYYCAAPNRYSVPMYYWGQGTQVTVSS” here?
Its value is “low polyreactivity”.

Which “polyreactivity (PSR sort gate)” value does the source give for “QVQLVESGGGLVQAGGSLRLSCAASGFIFGYYAMGWYRQAPGKERELVARITSSGGSTYYADSVKGRFTISRDNAKNTVYLQMNSLKPEDTAVYYCAKSPRAPRYIPYGYWGQGTQVTVSS” here?
Its value is “high polyreactivity”.

With “QVQLVESGGGLVQAGGSLRLSCAASGFIFGYYTMGWYRQAPGKERELVAAISSRGGSTYYAYSVKGRFTISRDNAKNTVYLQINSLKPEDTAVYYCAKRSTYTGSWWERGYCGQGTQVTVSS” as the sequence, how does the “polyreactivity (PSR sort gate)” value read?
The value was “high polyreactivity”.

For “QVQLVESGGGLVQAGGSLRLSCAASGFIFHIYAMGWYRQAPGKERELVAVITSGGSTYYADSVKGRFTISRDNAKNTVYLQMNSLKPEDTAVYYCAARYRRSWLEYDYWGQGTQVTVSS”, which “polyreactivity (PSR sort gate)” value is on record?
Its value is “high polyreactivity”.

Which “polyreactivity (PSR sort gate)” value does the source give for “QVQLVESGGGLVQAGGSLRLSCAASGFIFHKYVMGWYRQAPGKERELVAAISRSGASTYYADSVKGRFTISRDNAKNTVYFQMNSLKPEDTAVYYCAARYRRRVIATRDYWGQGTQVTVSS” here?
The value was “high polyreactivity”.

Which “polyreactivity (PSR sort gate)” value does the source give for “QVQLVESGGGLVQAGGSLRLSCAASGFIFHLYAMGWYRQAPGKERELVAVISGGGSTYYADSVKGRFTISRDNAKNTVYLQMNSLKPEDTAVYYCNVGRYYRYATGGDYWGQGTQVTVSS” here?
The value was “high polyreactivity”.

For “QVQLVESGGGLVQAGGSLRLSCAASGFIFHRYAMGWYRQAPGKERELVAAITGRGSSTYYADSVKGRFTISRDNAKNTVYLQMNSLKPEDTAVYYCNAYRYQVYDTGWFGYWGQGTQVTVSS”, which “polyreactivity (PSR sort gate)” value is on record?
Its value is “high polyreactivity”.

Which “polyreactivity (PSR sort gate)” value does the source give for “QVQLVESGGGLVQAGGSLRLSCAASGFIFHRYVMGWSRQAPGKERELVAAISSGGSTNYADSVKGRFTISRDNAKNTVYLQMNSLKPEDTAVYYCAADGFYYRNWGRFRYYYWGQGTQVTVSS” here?
The value was “low polyreactivity”.

Which “polyreactivity (PSR sort gate)” value does the source give for “QVQLVESGGGLVQAGGSLRLSCAASGFIFHTYAMGWYRQAPGKERELVAAISGGTSSTYYADSVKGRFTISRDNAKNTVYLQMNSLKPEDTAVYYCAARSRRGGYPRYYYWGQGTQVTVSS” here?
The value was “high polyreactivity”.

For “QVQLVESGGGLVQAGGSLRLSCAASGFIFHVYAMGWYRQAPGKEREFVAGISWRGGRTYYADSVKGRFTISRDNAKNTVYLQLNSLKPEDTAVYYCAALGLNAGGKFDYWGQGTQVTVSS”, which “polyreactivity (PSR sort gate)” value is on record?
Its value is “high polyreactivity”.

For “QVQLVESGGGLVQAGGSLRLSCAASGFIFIANGMGWNSQAPGKERALVAAITSGGGNTYYADSVKGRFTISRDNAKNTVYLQMNSLKPEDTAVYYCNAPSYGKFDYWGQGTQVTVSS”, which “polyreactivity (PSR sort gate)” value is on record?
The value was “high polyreactivity”.

With “QVQLVESGGGLVQAGGSLRLSCAASGFIFIAYVMGWYRQAPGKERELVAAITRSGASTYYADSVKGRFTISRDNAKNTVYLQMNSLKPVDTAVYYCAARGAYSFYGYYYWGQGTQVTVSS” as the sequence, how does the “polyreactivity (PSR sort gate)” value read?
The value was “high polyreactivity”.

With “QVQLVESGGGLVQAGGSLRLSCAASGFIFINYAMGWNRPAPGKERELVAAISSRGGSTYYADSVKGRFTISRDNAKNTVYLQMNSLKPEDTAVYYCNADQSFRIVTFDYWGQGTQVTVSS” as the sequence, how does the “polyreactivity (PSR sort gate)” value read?
The value was “high polyreactivity”.

With “QVQLVESGGGLVQAGGSLRLSCAASGFIFIRNAMGWYRQAPGKERELVAAISSGCRTYYADSVKGRFTISRDNAKNTVYLQMNSLKPEDTAVYYCATRPHRPRGHSVGQYDYWGQGTQVTVSS” as the sequence, how does the “polyreactivity (PSR sort gate)” value read?
Its value is “high polyreactivity”.

For “QVQLVESGGGLVQAGGSLRLSCAASGFIFKDNARGWYRQATGKEREFVASITASGGSTTYADSVKGRFTISRDTAKNTVYLQMTSLKPEDTAVYYCAARVGWNKRRYDYWGQGTQVTVSS”, which “polyreactivity (PSR sort gate)” value is on record?
The value was “low polyreactivity”.

With “QVQLVESGGGLVQAGGSLRLSCAASGFIFKGNAMGWYRPAPGKERELVAAISSRGGSTYYADSVKGRFTISRDNAKNTVYLQMNSLKPEDTAVYYCATRVYWRNDYWGQGTQVTVSS” as the sequence, how does the “polyreactivity (PSR sort gate)” value read?
Its value is “high polyreactivity”.

Which “polyreactivity (PSR sort gate)” value does the source give for “QVQLVESGGGLVQAGGSLRLSCAASGFIFKGYAMGWYRQAPGKERELVAAISSGGSTNYADSVKGRFTISRDNAKNTVYLQMNSLKPEDTAVYYCAAGRYIRHYWYGYWGQGTQVTVSS” here?
Its value is “high polyreactivity”.

With “QVQLVESGGGLVQAGGSLRLSCAASGFIFKHYAMGWYRQAPGKERELVAAITISASRTYYADSVKGRFTISRDNAKNTVYLQMNSLKPEDTAVYYCARRLLRGSDWGQGTQVTVSS” as the sequence, how does the “polyreactivity (PSR sort gate)” value read?
The value was “high polyreactivity”.

With “QVQLVESGGGLVQAGGSLRLSCAASGFIFKIYAMGWYRQAPGKERELVAAISSGDNTNYADSVKGRFTISRDNAKNTVYLQMNSLKPEDTAVYYCAARAYRWRSFSTMYYWGQGTQVTVSS” as the sequence, how does the “polyreactivity (PSR sort gate)” value read?
Its value is “high polyreactivity”.

For “QVQLVESGGGLVQAGGSLRLSCAASGFIFKKYAMGWYRQAPGKERELVAAISWSGGNTYYADSVKGRFTISRDNAKNTVYLQMNSLKPEDTAVYYCNAAGRRYKFDYWGQGTQVTVSS”, which “polyreactivity (PSR sort gate)” value is on record?
The value was “high polyreactivity”.

With “QVQLVESGGGLVQAGGSLRLSCAASGFIFKRYAMGWYRQAPGKERELVAAISTYSGGRTYYADSVKGRFTISRDNAKNSVYLQMNSLKPEDTAVYYCNARKYVGFWSRYDYWGQGTQVTVSS” as the sequence, how does the “polyreactivity (PSR sort gate)” value read?
Its value is “high polyreactivity”.

With “QVQLVESGGGLVQAGGSLRLSCAASGFIFKRYAMGWYRQAPGKERELVAAITGSGSRTYYADSVKGRFTISRDNAKNTVYLQMNSLKPEDTAVYYCNKDRRPTADFGYWGQGTQVTVSS” as the sequence, how does the “polyreactivity (PSR sort gate)” value read?
The value was “high polyreactivity”.

For “QVQLVESGGGLVQAGGSLRLSCAASGFIFKRYGMGWYRQAPGKERELVAAISYSGGSTYYADSVKGRFTISRDNAKNTVYLQMNSLKPEDTAVYYCKATIHYNAGWTMGSWGQGTQVTVSS”, which “polyreactivity (PSR sort gate)” value is on record?
The value was “high polyreactivity”.

With “QVQLVESGGGLVQAGGSLRLSCAASGFIFKRYTMGWYRPAPGKERELVATINWNGGNTYYADSVKGRFTISRDNAKNTVYLQMNSLKPEDTAVYYCNARYWRGQGWPGYDYWGQGTQVTVSS” as the sequence, how does the “polyreactivity (PSR sort gate)” value read?
Its value is “high polyreactivity”.

For “QVQLVESGGGLVQAGGSLRLSCAASGFIFKVYAMGWYRQAPGKERELVAAISSRGGRTNYADSVKGRFTISRDNAKNTVYLQMNSLKPEDTAVYYCATGAAGAYDYWGQGTQVTVSS”, which “polyreactivity (PSR sort gate)” value is on record?
Its value is “high polyreactivity”.

Which “polyreactivity (PSR sort gate)” value does the source give for “QVQLVESGGGLVQAGGSLRLSCAASGFIFKYYTMGWYRPAPGNERELVAAISKNAGSTYYADSVKGRFTISRDNAKNTVYLQMNSLKPEDTAVYYCARTYSTWYYYWGQGTQVTVSS” here?
Its value is “high polyreactivity”.

For “QVQLVESGGGLVQAGGSLRLSCAASGFIFLAYTMGWYRQAPGKERELVAAISTSGGSTYYEDSVKGRFTISRDNAKNTVYLQMNSLKPEDTAVYYCAARYRWGRYDYWGQGTQVTVSS”, which “polyreactivity (PSR sort gate)” value is on record?
Its value is “high polyreactivity”.

For “QVQLVESGGGLVQAGGSLRLSCAASGFIFLDNAMGWNRQAPGKERELVDAISSTGSTYADSVKGRFTISRDNAKNTVYLQMNSLKPEDTAVYYCAADIEVSWDDDGYYPEYDYWGQGTQVTVSS”, which “polyreactivity (PSR sort gate)” value is on record?
Its value is “low polyreactivity”.
